Paper PMC2879597 (Structure (London, England : 1993), 2010)
Residue numbers refer to the chain shown, from its start. Names and notes keep the numbering of the source.

B1: sIL-10R2-NQ (soluble extracellular IL-10R2 chain with N49Q, N68Q, N102Q, N161Q) (receptor, human, UniProt Q08334 20-220, looked up)
chain: MVPPPENVRMNSVNFKNILQWESPAFAKGQLTFTAQYLSYRIFQDKCMQTTLTECDFSSLSKYGDHTLRVRAEFADEHSDWVQITFCPVDDTIIGPPGMQVEVLADSLHMRFLAPKIENEYETWTMKNVYNSWTYNVQYWKQGTDEKFQITPQYDFEVLRNLEPWTTYCVQVRGFLPDRNKAGEWSEPVCEQTTHDETVPS
B2: sIL-10R2 Y173A (on sIL-10R2-NQ) (receptor, human, UniProt Q08334 20-220, looked up)
chain: B1 chain with Y154A
B3: glycosylated sIL-10R2 (receptor, human, UniProt Q08334 20-220, looked up)
chain: B1 chain with Q30N, Q49N, Q83N, Q142N
modifications: N-linked glycosylation sites N49, N68, N102 and N161 (glycosylated)
B4: sIL-10R2 Y56A (on sIL-10R2-NQ) (receptor, human, UniProt Q08334 20-220, looked up)
chain: B1 chain with Y37A
B5: sIL-10R2 Y59A (on sIL-10R2-NQ) (receptor, human, UniProt Q08334 20-220, looked up)
chain: B1 chain with Y40A
B6: sIL-10R2 Y140A (on sIL-10R2-NQ) (receptor, human, UniProt Q08334 20-220, looked up)
chain: B1 chain with Y121A

Tests used:
[1] = molecular target: T1, IL-22/sIL-22R1 binary complex (UniProt Q9GZX6 34-179; Q8N6P7 16-228)
T1 sequence (looked up) 1: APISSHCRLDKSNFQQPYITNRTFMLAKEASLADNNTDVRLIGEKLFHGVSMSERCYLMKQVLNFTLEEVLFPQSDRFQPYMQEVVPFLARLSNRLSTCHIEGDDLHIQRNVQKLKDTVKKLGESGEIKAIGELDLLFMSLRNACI
T1 sequence (looked up) 2: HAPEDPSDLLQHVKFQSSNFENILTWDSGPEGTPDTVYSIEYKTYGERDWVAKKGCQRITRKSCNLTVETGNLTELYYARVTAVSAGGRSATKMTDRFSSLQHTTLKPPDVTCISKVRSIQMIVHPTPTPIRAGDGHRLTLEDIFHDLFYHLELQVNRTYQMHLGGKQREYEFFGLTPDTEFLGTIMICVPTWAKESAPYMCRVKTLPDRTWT

[2] = molecular target: T1, IL-22/sIL-22R1 binary complex; assay: SPR
[3] = molecular target: hIL-10/sIL-10R1 binary complex (human | , UniProt P22301 19-178; Q13651 22-235); assay: SPR
[4] = molecular target: T2, cmvIL-10/sIL-10R1 binary complex (cytomegalovirus (CMV) | , UniProt P17150 20-175; Q13651 22-235); assay: SPR
T2 sequence 1: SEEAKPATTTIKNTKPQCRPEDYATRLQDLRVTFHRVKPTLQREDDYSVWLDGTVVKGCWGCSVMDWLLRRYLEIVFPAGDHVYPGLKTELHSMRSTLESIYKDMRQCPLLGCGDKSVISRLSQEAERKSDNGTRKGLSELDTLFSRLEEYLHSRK
T2 sequence 2: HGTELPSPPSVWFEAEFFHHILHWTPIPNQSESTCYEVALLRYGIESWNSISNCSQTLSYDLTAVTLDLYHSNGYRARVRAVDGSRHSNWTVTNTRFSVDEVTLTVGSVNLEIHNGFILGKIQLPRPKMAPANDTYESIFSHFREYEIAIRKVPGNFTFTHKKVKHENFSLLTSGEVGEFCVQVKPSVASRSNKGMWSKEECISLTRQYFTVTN

Sequence of hIL-10/sIL-10R1 binary complex (P22301 19-178, one chain of several): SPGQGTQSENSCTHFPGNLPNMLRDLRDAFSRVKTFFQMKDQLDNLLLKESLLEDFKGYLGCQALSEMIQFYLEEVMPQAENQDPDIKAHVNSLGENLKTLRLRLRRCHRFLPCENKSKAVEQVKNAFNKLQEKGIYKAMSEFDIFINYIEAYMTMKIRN

Binder	Kd [1]	percent of wild-type binding (normalized RU) [2]	percent of wild-type binding (normalized RU) [3]	percent of wild-type binding (normalized RU) [4]
B1	14 µM			
B2		65 % of WT		
B3	7 µM			
B4			~20 % of WT	~20 % of WT
B5		~50 % of WT	~50 % of WT	~50 % of WT
B6			~20 % of WT	~20 % of WT
